We go through 3 molecules from patent US20140072553A1 (MORPHOTEK, published 2014).

B1: human anti-SEB monoclonal antibody F10 (antibody, V domains shown)
VH: QVQLVQSGGGLVKPGGSLRLSCAASGFTFSSYSMNWVRQAPGKGLEWVSSISSSSSYIYYADSVKGRFTISRDNAKNSLYLQMNSLRAEDTAVYYCARGGVAGRTEIYYYYYGMDVWGQGTTVTVSS
VL: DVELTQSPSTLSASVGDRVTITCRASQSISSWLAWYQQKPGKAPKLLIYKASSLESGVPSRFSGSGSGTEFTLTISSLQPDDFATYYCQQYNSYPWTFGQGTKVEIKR
B2: human anti-SEB monoclonal antibody 100C9 (antibody, V domains shown)
VH: EVQLVESGGGLVQPGGSLRLSCSASGFTFSSYWMSWVRQAPGKGLEWVANIIQDGSEKYYADSVKGRLTISRDNAKNSLYLQMNSLRVDDTAVYYCARGYEGCSATRCYLYYFDYWGPGTLVTVSS
VL: SYVLTQPPSVSVSPGQTARITCSGDALPKQYTYWYQQKPGQAPVVVIYKDSERPSGIPERFSGSSSGTTVTVTISGVQAEDEADYYCQSADSSGTSLVFGGGTKLTVLG
B3: human anti-SEB monoclonal antibody 79G9 (antibody, V domains shown)
VH: EVQLEESGAGLLKPSETLSLTCAVYGGSFSGYYWSWIRQAPGKGLEWIGEIDHSGTTNYNPSLKSRVTISVETSKNQFSLRLSSVTAADSAVYYCASSGYCSHGLCPQEDWGQGTLVTVSS
VL: DIELTQSPSFLSASVGDRVAITCRASQGISNYLAWYQQKPGKAPKLLIYAAFVLQSGVPSRFSGSGSGTEFTLTISNLQPEDFATYYCQQLNSYPRAFGPGTKVDIKR

The target of the assay is tetanus toxoid (UniProt P04958 2-1315). Kind of assay: hybridoma screening ELISA. On the technique in general: In an ELISA, binding on a coated surface is turned into a signal by an enzyme label.
tetanus toxoid, sequence (P04958 2-457 limits assumed, chain 1 of 2): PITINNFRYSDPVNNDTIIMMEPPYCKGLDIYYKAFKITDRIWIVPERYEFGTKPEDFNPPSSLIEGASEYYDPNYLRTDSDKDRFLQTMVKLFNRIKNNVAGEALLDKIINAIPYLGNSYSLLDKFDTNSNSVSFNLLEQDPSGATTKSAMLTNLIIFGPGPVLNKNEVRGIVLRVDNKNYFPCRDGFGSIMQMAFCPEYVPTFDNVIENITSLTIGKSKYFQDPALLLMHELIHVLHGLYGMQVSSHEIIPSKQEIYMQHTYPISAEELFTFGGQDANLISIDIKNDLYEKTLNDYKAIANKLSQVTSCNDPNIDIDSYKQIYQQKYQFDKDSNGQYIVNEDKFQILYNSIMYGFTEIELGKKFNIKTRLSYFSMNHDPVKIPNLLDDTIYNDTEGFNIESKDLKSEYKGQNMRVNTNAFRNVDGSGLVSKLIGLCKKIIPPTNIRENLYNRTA
tetanus toxoid, sequence (P04958 458-1315 limits assumed, chain 2 of 2): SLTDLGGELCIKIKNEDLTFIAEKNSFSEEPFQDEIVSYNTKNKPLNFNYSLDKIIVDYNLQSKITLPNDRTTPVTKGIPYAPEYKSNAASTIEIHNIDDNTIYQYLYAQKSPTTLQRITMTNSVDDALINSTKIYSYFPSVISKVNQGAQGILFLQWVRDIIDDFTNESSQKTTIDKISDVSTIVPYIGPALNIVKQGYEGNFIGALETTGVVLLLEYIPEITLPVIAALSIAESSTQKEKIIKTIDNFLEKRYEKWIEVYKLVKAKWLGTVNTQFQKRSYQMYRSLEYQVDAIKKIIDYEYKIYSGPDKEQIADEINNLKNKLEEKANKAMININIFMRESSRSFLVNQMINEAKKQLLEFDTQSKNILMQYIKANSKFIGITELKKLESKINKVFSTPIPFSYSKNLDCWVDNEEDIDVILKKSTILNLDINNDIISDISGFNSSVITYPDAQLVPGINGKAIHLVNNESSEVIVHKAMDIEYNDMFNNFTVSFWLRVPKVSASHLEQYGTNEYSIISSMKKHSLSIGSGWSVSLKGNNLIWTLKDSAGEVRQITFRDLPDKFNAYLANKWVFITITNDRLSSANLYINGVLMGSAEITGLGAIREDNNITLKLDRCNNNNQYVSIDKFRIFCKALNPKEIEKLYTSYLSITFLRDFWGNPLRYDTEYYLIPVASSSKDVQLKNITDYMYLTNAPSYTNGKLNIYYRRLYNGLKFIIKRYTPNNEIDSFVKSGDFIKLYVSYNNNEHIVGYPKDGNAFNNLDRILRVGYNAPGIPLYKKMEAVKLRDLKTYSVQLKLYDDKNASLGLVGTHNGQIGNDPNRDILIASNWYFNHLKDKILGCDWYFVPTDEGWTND
As for B1, the binding result is “no binding”.
Regarding B2, the binding result is “no binding”.
As for B3, the binding result is “no binding”.
